The record followed here is the supplement of paper PMC9170038.

The data set relates to MS2 coat protein. In words: apparent KD of MS2 coat protein; designed switch direction (-1 OFF switch, 1 ON switch): -1; higher = weaker reporter binding. In short, it runs like this: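 Designed RNA switches sharing common flanks were transcribed on Illumina chips by stalled E. coli RNA polymerase. They were titrated with SNAP-549-labelled MS2 coat protein, from 0.7 or 1.5 nM doubling to 3 µM, in Tris-HCl pH 7.5 buffer with KCl, MgCl2, BSA, DTT, tRNA and Tween-20. Titrations ran without input, with 200 uM small-molecule ligand, or with an oligonucleotide input. The apparent KD of each design is the median over its clusters, after curve-fitting of normalised cluster fluorescence.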

[1] abbreviates: input ligand: microRNA oligo, concentration not stated.
[2] abbreviates: Eterna round: R95, input ligand: FMN 200 uM.
Setting [3] is: Eterna round: R95, input ligand: microRNA oligo, concentration not stated.
The mark [4] stands for this setting: Eterna round: R95, input ligand: none.

For “AAGAAGAAGUAAGGAUAUGAAGAUUUGGUGAUAACAUGAGGAUCACCCAUGUGAAAACAAUAAAAUCAGAAGGUAUAAGAAGAA [AK ExNG2-2] (Eterna round: R96, puzzle: Exclusion NG 2)”, the “apparent KD of MS2 coat protein” value stood at 0.0576 µM (input ligand: FMN 200 uM), 0.0373 µM under setting [1] and 0.058 µM (input ligand: none).

On to “AAACACACAGGAUAUGAGAGGCGGUACAUGAGGAUCACCCAUGUCCUCGGAAAUCAGCGUUCAGAAGGGUGCGGUG [Eternabot (Original) Solution 36] (Eterna round: R97, puzzle: Exclusion 5)”, for which the “apparent KD of MS2 coat protein” value is, setting by setting: (input ligand: FMN 200 uM) 0.457 µM; (input ligand: none) 0.171 µM.

On to “CGUGACUCAGGAUAUCUAUAGUAUCACAUGAGGAUCACCCAUGUCCAGCGAAAGCUGGAGGGAGAAGGGAGUCACG [Fiskers Ex 5 - 42] (Eterna round: R96, puzzle: Exclusion 5)”, for which the “apparent KD of MS2 coat protein” value came out at 0.0741 µM (input ligand: FMN 200 uM), 0.23 µM under setting [1] and 0.188 µM (input ligand: none).

As for “AAUUUACAUGAGGAUCACCCAUGUGAGGAUAUAUGUUUUAAUUUUUUUUUUUUUUUACAUAGAAGGCGCGUGAU [JR_Exc1_Sub046] (Eterna round: R97, puzzle: Exclusion 1)”, the “apparent KD of MS2 coat protein” value (input ligand: FMN 200 uM) is 0.0517 µM and the “apparent KD of MS2 coat protein” value (input ligand: none) was determined as 0.0585 µM.

Turning to “GGUCGCAGGACAGGAUAUCCAAGCGAUCUAACAUGAGGAUCACCCAUGUGCUAAGGCAGAGGGACGGAGAAGGGUCGAUCGGCC [Inqusodire] (Eterna round: R96, puzzle: Exclusion NG 2)”, the “apparent KD of MS2 coat protein” value is, setting by setting: (input ligand: FMN 200 uM) 0.166 µM; under setting [1], 0.0424 µM; (input ligand: none) 0.0583 µM.

“CUUCACCCACCAGAGCUCACCCACAUACCAGCUCUGGUGACAUGAGGAUCACCCAUGUUUUUUGCCCGUCUUAUCUU [Intibima] (puzzle: Sensor v3, turn-off variant 2)”: the “apparent KD of MS2 coat protein” value reads like this: under setting [2], 0.0413 µM; under setting [3], 0.189 µM; under setting [4], 0.0468 µM.

Turning to “UAAACCAGAGGAUAUGCGAAUAAAUAAAACUUUUUUUUUUAACAUGAGGAUCACCCAUGUAGAAGGCUGCAAUU [Ex2 #32] (Eterna round: R97, puzzle: Exclusion 2)”, the “apparent KD of MS2 coat protein” value by setting is: (input ligand: FMN 200 uM) 0.0304 µM; (input ligand: none) 0.03 µM.

“GUACUGACAGGAUAUACAUGAGGAUCACCCAUGUGCCUUAUCGCUACAAAAGUAGCGGGUAGAAGGGUCUGUAC [Omei Ex3 Model Bachelor's Dilema v19] (Eterna round: R97, puzzle: Exclusion 3)”: the “apparent KD of MS2 coat protein” value was 0.0418 µM (input ligand: FMN 200 uM) and 0.0164 µM (input ligand: none).

As to “UAUAUGCAAGCGAGAUCCCACAUGAGGAUCACCCAUGUAAUAAAUAAGCACAGAAUUACUGUGAAAGCUCGUCUUAU [Winner reversed engineered 37] (Eterna round: R97, puzzle: Sensor, turn-off variant 1)”, the “apparent KD of MS2 coat protein” value is, setting by setting: (input ligand: FMN 200 uM) 0.0925 µM; (input ligand: none) 0.105 µM.

For “AGGGACUAAGGAUAUACUUAGGAGAUAAACGACUGGUGAACACUUGAGGAUCACCCAAGUAGAAGGUAGUCAAA [Enonsoor] (Eterna round: R97, puzzle: Exclusion 2)”, the “apparent KD of MS2 coat protein” value by setting is: (input ligand: FMN 200 uM) 0.135 µM; (input ligand: none) 0.0304 µM.

Consider “AAGUAGGCAGGAUAUACAUGAGGAUCACCCAUGUGCCCAUGAAAGGUACUUUCGAAAGGUAGAAGGGCCUACAA [ChP 13.04.2015 #5] (puzzle: Exclusion 3)”, for which, under setting [3], the “apparent KD of MS2 coat protein” value was determined as 0.0146 µM.

Regarding “AACCUGAGGCAAAGCUUUAGGUGUACAUGAGGAUCACCCAUGUAGGAUAUGGUAGGCAAAGCUUACCAGAAGGACAUUGGCGUA [Mat - Exclusion NG 3 - Mod of JL - D41] (Eterna round: R96, puzzle: Exclusion NG 3)”, the “apparent KD of MS2 coat protein” value is, setting by setting: (input ligand: FMN 200 uM) 0.418 µM; under setting [1], 0.0938 µM; (input ligand: none) 0.119 µM.

Turning to “UUCUGCACGCUGCGGUCCUACAUGAGGAUCACCCAUGUGGUCUGGUGGCGUGGGUCGCCGGACUUGGCUCGUCUUGG [salish99_S_TOV1_R5_049] (Eterna round: R97, puzzle: Sensor, turn-off variant 1)”, the “apparent KD of MS2 coat protein” value reads like this: (input ligand: FMN 200 uM) 0.0154 µM; (input ligand: none) 0.0149 µM.

Take “AGUACUAACACGUAAGUGUUAGUACAAUAAGCUUGUGAAACAUGAGGAUCACCCAUGUCCUCAUAAGCUCGUCUUAU [salish99_TOv2_r3_025] (puzzle: Sensor v3, turn-off variant 2)”: the “apparent KD of MS2 coat protein” value under setting [2] stood at 0.0179 µM, the “apparent KD of MS2 coat protein” value under setting [3] amounted to 0.659 µM and the “apparent KD of MS2 coat protein” value under setting [4] is 0.0154 µM.

As for “AGUACUAACACGAUAGUGUUAGUACAAUAAGCUUGUGAAACAUGAGGAUCACCCAUGUCCUCAUAAGCUCGUCUUAU [salish99_TOv2_r3_030] (puzzle: Sensor v3, turn-off variant 2)”, the “apparent KD of MS2 coat protein” value reads like this: under setting [2], 0.0145 µM; under setting [3], 0.993 µM; under setting [4], 0.0146 µM.

For the sequence “ACGGCUGAAGGAUAUGCAGUGACCACAAAGGUAUGACUAUCACAUGAGGAUCACCCAUGUAGAAGGUCGGCGCC [Eternabot (L2) Solution 29] (Eterna round: R97, puzzle: Exclusion 2)”, the “apparent KD of MS2 coat protein” value by setting is: (input ligand: FMN 200 uM) 0.0136 µM; (input ligand: none) 0.0144 µM.

With “UUUCUUGGGCAAGGAUAUCCUGUGCGGUUCCGGCUCGUGUCUGUCACAUGAGGAUCACCCAUGUGGGAGAAGGUGCCUGCGGUC [Design 82] (Eterna round: R96, puzzle: Exclusion NG 2)”, the “apparent KD of MS2 coat protein” value (input ligand: FMN 200 uM) amounted to 0.0144 µM, the “apparent KD of MS2 coat protein” value under setting [1] came out at 0.0112 µM and the “apparent KD of MS2 coat protein” value (input ligand: none) amounted to 0.0149 µM.

Consider “AAUUUUUGAUACCUUUAAUACAUGAGGAUCACCCAUGUUAUCGAGGAUAUGUAGAUGAAAUGAGAACAGAAGGCGAAGUAAGAG [JR_ExcNG3_Sub099] (Eterna round: R96, puzzle: Exclusion NG 3)”, for which the “apparent KD of MS2 coat protein” value turned out to be 0.0415 µM (input ligand: FMN 200 uM), 0.00324 µM under setting [1] and 0.0156 µM (input ligand: none).

For “UUAUUGGUAGUGAGGAUAUCGGAUAGAUAGAUAUUCGAGAAGGCACAUGAGGAUCACCCAUGUAAGAUUGGAAA [JR_BMEx4_Sub045] (Eterna round: R97, puzzle: Brourd's mod of Exclusion 4)”, the “apparent KD of MS2 coat protein” value reads like this: (input ligand: FMN 200 uM) 0.155 µM; (input ligand: none) 0.0385 µM.

As for “CUGAGAUCAGGAUAUACAUGAGGAUCACCCAUGUAAAGUAGCUUGCGUACAGGCAGAUGUAGAAGGGAUUUCGG [Mod of JL 5 - Jieux - Exclusion 3] (Eterna round: R97, puzzle: Exclusion 3)”, the “apparent KD of MS2 coat protein” value reads like this: (input ligand: FMN 200 uM) 0.0297 µM; (input ligand: none) 0.0265 µM.

Regarding “AGAAGUAGUAACCGAUCCUACAUGAGGAUCACCCAUGUAGCGGGACGUGCACGCGAAGCUCGUCAGACUACCAGAUG [salish99_TOv1_r3_024] (puzzle: Sensor v3, turn-off variant 1)”, the “apparent KD of MS2 coat protein” value is, setting by setting: under setting [2], 0.0272 µM; under setting [3], 0.0267 µM; under setting [4], 0.0286 µM.

As to “AACGUGGCAAAGGAUAUCCACACGGCAAAGCCGGGAGAAGGUUGCACAUGAGGAUCACCCAUGUGAACCAAACA [Onsozamati] (puzzle: Exclusion 6)”, under setting [3], the “apparent KD of MS2 coat protein” value came to 0.0136 µM.

For the sequence “GCCGAGUGAGGAUAUACAUGAGGAUCACCCAUGUAAACACGAAAGCAAGUGUCCCUCAGUAGAAGGCGCCAGGA [Xeanonis] (puzzle: Exclusion 3)”, the “apparent KD of MS2 coat protein” value reads like this: under setting [2], 0.0182 µM; under setting [3], 0.0139 µM; under setting [4], 0.014 µM.

Consider “UAUAUGUCAGGAUAUUAGUUGAGGUGGAAUUUAGCCUAUGCUGAGAAGGGACAUGAGGAUCACCCAUGUUCCUC [JR_Ex4_Sub011] (Eterna round: R97, puzzle: Exclusion 4)”, for which the “apparent KD of MS2 coat protein” value came to 0.0939 µM (input ligand: FMN 200 uM) and 0.0191 µM (input ligand: none).

“GAGUAGUAAGGAUAUGUCUCUGGUGGCUACGGUCACUAGAGGCAGAAGGUACAUGAGGAUCACCCAUGUUUCUC [ExDelusion 9 - Jieux - Exclusion 4] (Eterna round: R97, puzzle: Exclusion 4)”: the “apparent KD of MS2 coat protein” value was found to be 0.0831 µM (input ligand: FMN 200 uM) and 0.0392 µM (input ligand: none).

As to “GUUGUUUAUGUAGGAUAUGCCUGGCGAGCCUAAGCAGAAGGACAUGAGGAUCACCCAUGUAUUGCGGUCUGCGUUCAGAUCGCU [salish99_ExNG1_r4_018] (Eterna round: R96, puzzle: Exclusion NG 1)”, the “apparent KD of MS2 coat protein” value turned out to be 0.0383 µM (input ligand: FMN 200 uM), 0.00994 µM under setting [1] and 0.0189 µM (input ligand: none).

Regarding “CUUUUGUGAGGAUAUCAGUAGUAAAUAAAUAAAAUUACUACUGAGAAGGCACAUGAGGAUCACCCAUGUUCCUC [salish99_ex4_r3_015] (puzzle: Exclusion 4)”, under setting [3], the “apparent KD of MS2 coat protein” value amounted to 0.0374 µM.

In the case of “AAGAAACAUGAGGAUCACCCAUGUGAGGAUAUGAAAAAGAAAAGAAAAGAAAGAAGAAUCAGAAGGCACAAAGG [salish99-ex1_r3_019] (puzzle: Exclusion 1)”, the “apparent KD of MS2 coat protein” value came out at 0.0405 µM under setting [2], 0.0307 µM under setting [3] and 0.034 µM under setting [4].

With “CGUGACUGAGGAUAUCUAUGAUAUCACAUGAGGAUCACCCAUGUCCAGCGAAAGCUGGAGGGAGAAGGCAGUCACG [Fiskers Ex 5 - 30] (puzzle: Exclusion 5)”, the “apparent KD of MS2 coat protein” value under setting [2] worked out at 0.0615 µM, the “apparent KD of MS2 coat protein” value under setting [3] turned out to be 0.22 µM and the “apparent KD of MS2 coat protein” value under setting [4] is 0.185 µM.

For “AAUUAAUAUCAGGAUAUGACUUUCGAUAUUUAGUCAGAAGGGAUGACAUGAGGAUCACCCAUGUGAUCAAUUAA [JR_Ex6_Sub027] (Eterna round: R97, puzzle: Exclusion 6)”, the “apparent KD of MS2 coat protein” value is 0.101 µM (input ligand: FMN 200 uM) and 0.0377 µM (input ligand: none).
